# Assay results reported in US20180171024A1.
# Columns and labels:
# [1] = target: Unloaded T2 (Homo sapiens); assay: flow cytometry, unloaded T2 cells, PE anti-mouse
# [2] = target: HLA-A2 on cells (tumor cell lines, normal primary cells, PBMCs) (human); assay: flow cytometry, SK-Mel-5 melanoma cells, 10 µg/ml
# [3] = target: HLA-A2 on cells (tumor cell lines, normal primary cells, PBMCs) (human); assay: flow cytometry, colonic smooth muscle cells 2940, 10 µg/ml
# [4] = target: HLA-A2 on cells (tumor cell lines, normal primary cells, PBMCs) (human); assay: flow cytometry, SET-2 cells, 10 µg/ml
# [5] = target: HLA-A2/TyrD-S22 on T2 cells (human); assay: flow cytometry, T2 cells loaded with TyrD-S22 [..], 10 µg/ml
# [6] = target: HLA-A2 on HLA-A2+ cells that do not express WT1 (tumor cell lines, normal primary cells); assay: flow cytometry on SKMEL-5 melanoma cells (WT1 mRNA -)
# [7] = target: HLA-A2/TyrD-S16 on T2 cells (human); assay: flow cytometry, T2 cells loaded with TyrD S16 [..], 10 µg/ml
# [8] = target: HLA-A2/TyrD-S18 on T2 cells (human); assay: flow cytometry, T2 cells loaded with TyrD-S18 [..], 10 µg/ml
# [9] = target: HLA-A2 on cells (tumor cell lines, normal primary cells, PBMCs) (human); assay: flow cytometry, WM-115 melanoma cells, 10 µg/ml
# [10] = target: HLA-A2/WT1 126-134 complex on T2 cells (human); assay: flow cytometry, T2 cells loaded with WT1 peptide
# [11] = target: HLA-A2/TyrD-S19 on T2 cells (human); assay: flow cytometry, T2 cells loaded with TyrD-S19 [..], 10 µg/ml
# [12] = target: HLA-A2 on cells (tumor cell lines, normal primary cells, PBMCs) (human); assay: flow cytometry, renal epithelial cells 4120, 10 µg/ml
# [13] = target: HLA-A2/WT1-S11 on T2 cells (human); assay: flow cytometry, peptide-loaded T2 cells (10^-4-10^-5 M)
# [14] = target: HLA-A2/WT1-S10 on T2 cells (human); assay: as above
# [15] = target: HLA-A2/WT1-S7 on T2 cells (human); assay: as above
# [16] = target: HLA-A2/WT1-S13 on T2 cells (human); assay: as above
# [17] = target: HLA-A2/WT1-S6 on T2 cells (human); assay: as above
# [18] = target: HLA-A2/WT1-S22 on T2 cells (human); assay: as above
# [19] = target: HLA-A2/WT1-S16 on T2 cells (human); assay: as above
# [20] = target: HLA-A2 on HLA-A2+ cells that do not express WT1 (tumor cell lines, normal primary cells); assay: flow cytometry on 501A melanoma cells (WT1 mRNA -)
# [21] = target: HLA-A2 on cells (tumor cell lines, normal primary cells, PBMCs) (human); assay: flow cytometry, 501A cells
# [22] = target: HLA-A2/CMV on T2 cells (human); assay: flow cytometry, T2 cells loaded with CMV peptide
# [23] = target: HLA-A2 on cells (tumor cell lines, normal primary cells, PBMCs) (human); assay: flow cytometry, 624.38 melanoma cells, 10 µg/ml
# [24] = target: HLA-A2 on cells (tumor cell lines, normal primary cells, PBMCs) (human); assay: flow cytometry, CCRF-SB cells, 10 µg/ml
# [25] = target: HLA-A2/TyrD-S10 on T2 cells (human); assay: flow cytometry, T2 cells loaded with TyrD S10 [..], 10 µg/ml
# [26] = target: HLA-A2 on HLA-A2+/WT1+ BV173 cells (WT1 mRNA positive; WT1 126-134 peptide not detected by mass spectrometry of eluted HLA peptides); assay: flow cytometry on BV173 cells (WT1 mRNA +)
# [27] = target: HLA-A2/KPNA1 on T2 cells (human); assay: flow cytometry, T2 cells loaded with KPNA1 [..], 10 µg/ml
# [28] = target: HLA-A2/Tyrosinase369-377 complex on cells (human); assay: flow cytometry, T2 cells loaded with TyrD peptide ([..] printed under the label), 10 µg/ml
# [29] = target: HLA-A2/SSX-2 on T2 cells (human); assay: flow cytometry, T2 cells loaded with SSX2 [..], 10 µg/ml
# [30] = target: HLA-A2 on cells (tumor cell lines, normal primary cells, PBMCs) (human); assay: flow cytometry, PANC-1 pancreatic carcinoma cells, 10 µg/ml
# [31] = target: HLA-A2/ARHGAP on T2 cells (human); assay: flow cytometry, T2 cells loaded with ARHGAP peptide
# [32] = target: Unloaded T2 (Homo sapiens); assay: flow cytometry, unloaded T2 cells
# [33] = target: HLA-A2 on cells (tumor cell lines, normal primary cells, PBMCs) (human); assay: flow cytometry, fibroblasts Fib, 10 µg/ml
# [34] = target: HLA-A2 on cells (tumor cell lines, normal primary cells, PBMCs) (human); assay: flow cytometry, A375 melanoma cells, 10 µg/ml
# [35] = target: HLA-A2/TyrD-S11 on T2 cells (human); assay: flow cytometry, T2 cells loaded with TyrD S11 [..], 10 µg/ml
# [36] = target: HLA-A2 on cells (tumor cell lines, normal primary cells, PBMCs) (human); assay: flow cytometry, IM-9 cells, 10 µg/ml
# [37] = target: HLA-A2 on cells (tumor cell lines, normal primary cells, PBMCs) (human); assay: flow cytometry, DG-75 cells, 10 µg/ml
# [38] = target: HLA-A2/TyrD-S9 on T2 cells (human); assay: flow cytometry, T2 cells loaded with TyrD S9 [..], 10 µg/ml
# [39] = target: HLA-A2/GP9 on T2 cells (human); assay: flow cytometry, T2 cells loaded with GP9 peptide
substance,measurement,setting,value
BB7.2 (antibody),MFI,[1],1050
same,MFI,[2],118
same,MFI,[3],563
same,MFI,[4],274
same,MFI relative to background,[5],464
same,MFI,[6],170
same,MFI relative to background,[7],421
same,MFI relative to background,[8],838
same,MFI,[9],215
same,MFI,[10],2320
same,MFI relative to background,[11],555
same,MFI,[12],889
same,MFI,[13],449
same,MFI,[14],450
same,MFI,[15],592
same,MFI,[16],296
same,MFI,[17],500
same,MFI,[18],376
same,MFI,[19],379
same,MFI,[20],229
same,GeoMean,[21],1290
same,MFI,[22],2400
same,MFI,[23],311
same,MFI,[24],902
same,MFI relative to background,[25],620
same,MFI,[26],962
same,MFI relative to background,[27],729
same,MFI relative to background,[28],848
same,MFI relative to background,[29],1280
same,MFI,[30],242
same,MFI,[31],2580
same,MFI,[32],290
same,MFI,[33],481
same,MFI,[34],174
same,MFI relative to background,[35],473
same,MFI,[36],457
same,MFI,[37],700
same,MFI relative to background,[38],768
same,MFI,[39],2470
